Measured values taken from the DeepSol protein solubility set.

Experiment: soluble on expression in E. coli; label from the status in PepcDB or PDB records

Row | Sequence | soluble on expression in E. coli
1 | MSYNEKSSKSIHEKRAIAKYAASLIEDGDCIFVDAGTTTYELIDYLEGKDILVVSNGLSHIDTLIQKNIKCYVIGGNIKISTKAITGCDALMCLSKFRFDKCFIGANGVHHTYGLTTPDTEEAILKECAINNSRKAYVLADDSKFGEISTIKFSDINKCVIITNEKPKDLEHHHHHH | not soluble
2 | DQEVRLENRITFQLELVGLERVVRISAKPTKRLQEALQPILAKHGLSLDQVVLHRPGEKQPMDLENPVSSVASQTLVLDTPPDAKMSEARS | soluble
3 | MDDPFASLEPLAVAPSGPEGVRAQFDQMEDIPPPRPRQPPPAQEDPVEIEVTEDGVARAFTEKYGGTLRFDHDAGRWYHWQEDHWQADTTSRAFEYCRRLARLASEGAKHSLLSTARKASFAGGVERLARADPAHAVTQEAWDRDPWLVACPGETVDLRTGRSAVPRPEDGITRRVAVAPAAQETCPTWWQFLEDATGADSSVMRFLQQWAGYSLTGITREHTLVFLYGDGGNGKSVFINTLTGLLGDYAATAGMETFTASKSDRHPTDLAMLAGARLVAASETEEGRAWAESRIKQMTGGDRITARFMRRDFFTYTPQFKLTLVGNHRPALANVKPVEPWALVVPAELETVAQQVLAEIAAAAVSDVNPFSGTLELIVEPGLTSATGWYLIGNPALHDGLAHAFLDGQSAPRIETRAGWNTLGMEFRLTWAVDAKFIGTASWFRNPGASGCPRCRPRNAQRQGVALLCLARRSEVLDRLEHHHHHH | not soluble
4 | MGHNDELIRNKSAFASEMSDAAAIVQYADKNSLVVLDELARSTSTEEGIAITYAICEKVLKLHSYTFLATHFLDIAALANYSNAIDNYHFLPQIDDNSTKKHKLLRG | not soluble
5 | MEERLSTTSSYPSHPGRSVEEDHNTLLASSSISSIIRGTRGHLNNFIESVGNWLVPSSSGRDDDAVSLDSCQSVYSPVRHHINSGTGGGILMEPSSIHVPENYYSVTIGEAQMVVLKRYQNLRLIGSGAQGIVCSAFDTVRNEQVAIKKLSRPFQNVTHAKRAYRELKLMSLVNHKNIIGILNCFTPQKKLDEFNDLYIVMELMDANLCQVIQMDLDHERLSYLLYQMLCGIRHLHSAGIIHRDLKPSNIVVRSDCTLKILDFGLARTAIEAFMMTPYVVTRYYRAPEVILGMGYKENVDVWSIGCIFGELIRGRVLFPGGDHIDQWTRIIEQLGTPDRSFLERLQPTVRNYVENRPRYQATPFEVLFSDNMFPMTADSSRLTGAQARDLLSRMLVIDPERRISVDDALRHPYVNVWFDEIEVYAPPPLPYDHNMDVEQNVDSWREHIFRELTDYARTHDIYS | not soluble
6 | PMSEKQLAEVVERTVTPLMKAQAIPGMAVAVIYEGQPHYFTFGKADVAANKPVTPQTLFELGSISKTFTGVLGGDAIARGEISLGDPVTKYWPELTGKQWQGIRMLDLATYTAGGLPLQVPDEVKDNASLLRFYQNWQPQWKPGTTRLYANASIGLFGALAVKPSGMSYEQAITTRVFKPLKLDHTWINVPKAEEAHYAWGYRDGKAVHVSPGMLDAEAYGVKTNVQDMASWVMVNMKPDSLQDNSLRKGLTLAQSRYWRVGAMYQGLGWEMLNWPVDAKTVVEGSDNKVALAPLPAREVNPPAPPVNASWVHKTGSTGGFGSYVAFIPEKQLGIVMLANKSYPNPARVEAAYRILSAL | soluble
7 | MGSDKIHHHHHHMRKVAIYSRVSTINQAEEGYSIQGQIEALTKYCEAMEWKIYKNYSDAGFSGGKLERPAITELIEDGKNNKFDTILVYKLDRLSRNVKDTLYLVKDVFTANNIHFVSLKENIDTSSAMGNLFLTLLSAIAEFEREQIKERMQFGVMNRAKSGKTTAWKTPPYGYRYNKDEKTLSVNELEAANVRQMFDMIISGCSIMSITNYARDNFVGNTWTHVKVKRILENETYKGLVKYREQTFSGDHQAIIDEKTYNKAQIALAHRTDTKTNTRPFQGKYMLSHIAKCGYCGAPLKVCTGRAKNDGTRRQTYVCVNKTESLARRSVNNYNNQKICNTGRYEKKHIEKYVIDVLYKLQHDKEYLKKIKKDDNIIDITPLKKEIEIIDKKINRLNDLYINDLIDLPKLKKDIEELNHLKDDYNKAIKLNYLDKKNEDSLGMLMDNLDIRKSSYDVQSRIVKQLIDRVEVTMDNIDIIFKF | not soluble
8 | MGSDKIHHHHHHMTIEMKNNKNNNCNFPTLRFPEFSGEWKKDIIGNVISVKSEKYNPHSNRTEFICVELESISQGTGELLETFNSAEQKSIKNKFSPGTVLFGKLRPYLRKFYLPYFEGVCSSEIWVMRSNKIEPAFLYSFIQTPYFISLANQSSGSKMPRADWGLIETSKIAYPPNSAERVKIGKFLKLIDERIATQNKIIAHLESLIKGLTNQLLIPNSNWQPTTIGQVLTINPGKDYKHLKEGNIPVYGTGGYMLSVNDYLYDGESVCIGRKGTINKPIFLTGKFWTIDTLFYTSNFNSLLPRFGYYLFKTIDWLKYNEASGVPSLSKVSIEKIHISLPSLAIQNSICRLLDSIYDKLALEESVLNNHQTQKAFILQQMFI | not soluble
9 | MTFTASSSSCAITESPVVVALDYHERDKALAFVDKIDPRDCRLKVGKEMFTLFGPQLVRDLQQRGFDVFLDLKFHDIPNTTARAVAAAADLGVWMVNVHASGGARMMAAARDALAPFSKDAPLLIAVTVLTSMETSDLHDLGVTLSPAEHAERLARLTQQCGLDGVVCSAQEAVRFKQAFGAAFKLVTPGIRPAGSEAGDQRRIMTPEQALSAGVDYMVIGRPVTQSVDPAQTLKDINASLKREA | not soluble
10 | MGSDKIHHHHHHMRIQQLHYIIKIVETGSMNEAAKQLFITQPSLSNAVRDLEREMGIEIFIRNPKGITLTKDGVEFLSYARQVVEQTALLEERYKSQGHTRELFSVSAQHYAFVVNAFVSLLKETDMTRYELFLRETRTYEIIDDVKNFRSEIGVLFLNSYNHDVLTKMFDDNHLTYTSLFKAHPHIFVSKDNPLAKHQSVSLSDLEDFPYLSYDQGIHNSFYFSEEIMSQISHKKSIVVSDRATLFNLMIGLDGYTIATGILNSNLNGDNIVSIPLEVDDEIDIIYLKHEKANLSKMGEKFIDYLLEEVKFDK | not soluble
11 | AMAKGVGVSNEKLDAVMRVVSEESGIALEELTDDSNFADMGIDSLSSMVIGSRFREDLGLDLGPEFSLFIDCTTVRALKDFMLGSGDAG | soluble
12 | MGSDKIHHHHHHMAEELLPLKTVRNPRDLGGYTGFAGRKIKAGLLLRTGTVAAISEEDGNYLRARGVKTIIDLRSPQECRKRPDKKLAGIQNVNIPVNSRDQTKAEASLAELARQYGLDPLAGFRHMVESYRLMVTEEHAQAAFGQVLAYLAETEGGTIYHCSEGKDRTGLVTVFLLTVLGVDPETIRQDYLLSAPYLNVYRAKRDKEARENGESLVQRANLRSLGTVNNEYLDS | not soluble
13 | LESALIEVNGKQQLRYEFLNDMLTQQNFQTNPIYAILHESIYCQDFASNWSAHRVRQTRPEFNYEPDQPFYFTGEMVFPWMFDQYVNLKPLKDAAEILAAKEDWAALYDQTQLAQNKVPVSCAVYADDMFVEMDISRETLALIPNSKAWITNEYEHNGLRADGERILDRLIAMGKQTAATLK | not soluble
14 | MTIIKLERRDVRLLLLYEFRLGHSAMEAERNICGAMGEGALSYNTAKSWFQKFKNGDFSLEEIERSGRPVELNEEDLVKLVEEEPRLSLREMEEKLECCHSTIARHLGRLGFTSKLGIWVPHELSASQKLTRVNVCTQLLTFRRKFDWLNNLVTGDEKWVLYVNHSRKRQWLPIGEKGIPTPKPDLHPKKIMICVWWGVQGPVHWELLPTNKTITADYYCAQLDRVAEKTNGKYEKLYFLHDNARPHVAKKTFQKLQDLGWTVLPHPPYSPDLAPTDYHLFLSLSDYMRDKQFDDEEHLKTELSTFFSSRSPDFFSRGIMMLPSKWQQVVDTNGEYLCE | not soluble
15 | KFTLGQFFGAAKIAGKAFMFKADEPEDLIAKIVEMADAARKGGFLALEEMEINNSFMQKGIDLLVDGHDADVVRAALQKDIALTDERHTQGTGVFRAFGD | not soluble
16 | MGSDKIHHHHHHMPFDGLLLHKAVRELKELEGEHLRQIYQPTTVDYYFLFRSATVRVCLRPDVSHVAIAEKEEASEKMPSSFTMLLRKELKGAKLLKVEQIGMDRTLRFSFEKFDEIEGIVQKDLYIEIMGIHSNMILVRDRRIIDAHRRIVTKKREILPGREFVIFPSGKVSIFELRELPPESEKTIRNVLLSLLEGFSPVSVEELIHRTGYELDTPWKAVDQRKILEVLEEIKKELELPGVFVYYEASHPVEVSAFRFTMLSLKERYFEKPSEGINEFVRWKEEKSTFENTKNRFIKVVVNRIEDLEDLEEKLSRELSEAEKAERYKKLGDLIVQNLWSIKGKSGEVELTDWETNEKIVVDVGKDPAQTAQKFYNTYKKLQRKKEQVEKRLEEIQREKEYLYQLWQTIEDAEDLETLEEIEEEMREFGLLKERKTKKQKSKKTRFREVYYGGFKILIGRNNKQNDELVRTSSKEDLWFHAHEMPGAHVVVKTEGKKVPQEVVEYAASLAAGYSKGKNSGKVPVDYTFIKYVRKPKGFKPGMVIYKNYKTILVEPRRIEG | not soluble
17 | MSLGETAWCRHPLAYLVEAADDICYALLDLEDGLEMGILRFDEVAEILIQIAGGAPEGYDGMRARGVSQRRRIATLRGAAMERAVNDVAAVFVAHESALLGGTLSEDLLELCHPDLGWGVGTAKRIARERIFQNERKAKLEIGAYTTLGILLEAFIGAAHELHYSGQSSFKHQRVLALIGENTPKSSWSLYASYRRMLDFIGGMTDHYAVDLAQEMGGRLEGHHHHHH | not soluble
18 | MGSDKIHHHHHHMRIYSFYNENARRETLEEHVATALKLLDSAENSKLVKYGKKLSPEFERAVKLAIIFHDTGKVFFQIKKGYGYMSFRGHEYFSTYIFDVFARRLIKSEIENYEALSELRKICNFSIFFHHHAMNIRMREPEAGSNIKAGLKLLDVLYSEVKRFLEDKEKKALKAALEEVKEKGTANLTGYVKGEIVREVWRNAMDSSKLKRLCYLNLLVLIAADYSSAALNRGGNKTPFGRVVEEFSEFYLK | not soluble
19 | MYKWLLSVLLVLMSTVVHAADCFDLAGRDYKIDPDLLRAISWKESRNRANAVGINPVTGYGSGLMQVDSQHFNELARYGIKPEQLVSDPCLNIYTGAYYLAIAFRKWGVSWTAVGAYNAGFKKTPLQDARRLDYATDVHRIWIAIKQSKTRQTPAR | not soluble
20 | MSLTIDRIRALVSEDFNAVNNLIIDKIQSQVGLIQDLSQHIVESGGKRLRPLVVLLASNACGYKGKDHISLAAMVEFFHTATLLHDDVIDESTLRRGRQTANSIWGSKASVLVGDYLFTQSVNLMVEVGIKEILNLLANTSHQITCGEVKQLANRHNPALTLDDYFDVIRAKTALLFAAAACIGPILTNAPIELRNSLYNYGLHLGNAFQLIDDALDYCSDAATLGKNIGDDLADGKATLPLIHALQNGNATQQQQIRESLMKGSLSHLPDILIAIEQTEAIPFTKRIAAQEVDSALSALEILPDSVYKEALVDLAKFALERNYEGHHHHHH | soluble
21 | MSSALTDLFPLPIVQAPMAGGVSVPQLAAAVCEAGGLGFLAAGYKTADGMYQEIKRLRGLTGRPFGVNVFMPQPELAESGAVEVYAHQLAGEAAWYETELGDPDGGRDDGYDAKLAVLLDDPVPVVSFHFGVPDREVIARLRRAGTLTLVTATTPEEARAVEAAGADAVIAQGVEAGGHQGTHRDSSEDDGAGIGLLSLLAQVREAVDIPVVAAGGIMRGGQIAAVLAAGADAAQLGTAFLATDESGAPGPHKRALTDPLFARTRLTRAFTGRPARSLVNRFLREHGPYAPAAYPDVHHLTSPLRKAAAKAGDAQGMALWAGQGHRMARELPAGRLVEVLAAELAEARTALSDASRENESRKGHHHHHH | soluble
22 | MASYAELFDIGEDFAAFVGHGLATEQGAVARFRQKLESNGLPSALTERLQRIERRYRLLVAGEMWCPDCQINLAALDFAQRLQPNIELAIISKGRAEDDLRQRLALERIAIPLVLVLDEEFNLLGRFVERPQAVLDGGPQALAAYKAGDYLEHAIGDVLAIIEGAAR | soluble
